Tests used:
c-Src SH2 = experiment: SH2 binding enrichment of the phosphorylated peptide, bacterial display (enrichment ratio); higher = better substrate or ligand; peptides without Tyr show the background
SHP2-C SH2 = experiment: as above
Grb2 SH2 = Grb2 SH2 (UniProt P62993); experiment: as above
Jak2 = Jak2 (UniProt O60674); experiment: phosphorylation enrichment, bacterial display (enrichment ratio); higher = better substrate or ligand; peptides without Tyr show the background
Fes = Fes (UniProt P07332); experiment: as above
EPHB2 = EPHB2 (UniProt P29323); experiment: as above
FGFR1 = FGFR1 (UniProt P11362); experiment: as above
AncSZ = experiment: as above
MERTK = MERTK (UniProt Q12866); experiment: as above
Hck = Hck (UniProt P08631); experiment: as above
EPHB1 = EPHB1 (UniProt P54762); experiment: as above
FGFR3 = FGFR3 (UniProt P22607); experiment: as above
c-Abl (mouse) = experiment: as above
Fyn = Fyn (UniProt P06241); experiment: as above
c-Src = experiment: as above
Fer (mouse) = experiment: as above
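Wherever SH2 binding enrichment of the phosphorylated peptide, bacterial display is given: peptide library displayed on the E. coli surface as eCPX fusions, selected cells deep-sequenced, score is each peptide's frequency after selection divided by its frequency in the input.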
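Wherever phosphorylation enrichment, bacterial display is given: 11-residue human phosphosite peptides and single-mutation variants displayed on the E. coli surface, counted by deep sequencing, each peptide's frequency after selection divided by its frequency in the unselected input library; frequency after pTyr selection over input frequency; kinase dosed for 20-30% of maximal phosphorylation in three min.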

Jak2, sequence (O60674 whole entry, looked up): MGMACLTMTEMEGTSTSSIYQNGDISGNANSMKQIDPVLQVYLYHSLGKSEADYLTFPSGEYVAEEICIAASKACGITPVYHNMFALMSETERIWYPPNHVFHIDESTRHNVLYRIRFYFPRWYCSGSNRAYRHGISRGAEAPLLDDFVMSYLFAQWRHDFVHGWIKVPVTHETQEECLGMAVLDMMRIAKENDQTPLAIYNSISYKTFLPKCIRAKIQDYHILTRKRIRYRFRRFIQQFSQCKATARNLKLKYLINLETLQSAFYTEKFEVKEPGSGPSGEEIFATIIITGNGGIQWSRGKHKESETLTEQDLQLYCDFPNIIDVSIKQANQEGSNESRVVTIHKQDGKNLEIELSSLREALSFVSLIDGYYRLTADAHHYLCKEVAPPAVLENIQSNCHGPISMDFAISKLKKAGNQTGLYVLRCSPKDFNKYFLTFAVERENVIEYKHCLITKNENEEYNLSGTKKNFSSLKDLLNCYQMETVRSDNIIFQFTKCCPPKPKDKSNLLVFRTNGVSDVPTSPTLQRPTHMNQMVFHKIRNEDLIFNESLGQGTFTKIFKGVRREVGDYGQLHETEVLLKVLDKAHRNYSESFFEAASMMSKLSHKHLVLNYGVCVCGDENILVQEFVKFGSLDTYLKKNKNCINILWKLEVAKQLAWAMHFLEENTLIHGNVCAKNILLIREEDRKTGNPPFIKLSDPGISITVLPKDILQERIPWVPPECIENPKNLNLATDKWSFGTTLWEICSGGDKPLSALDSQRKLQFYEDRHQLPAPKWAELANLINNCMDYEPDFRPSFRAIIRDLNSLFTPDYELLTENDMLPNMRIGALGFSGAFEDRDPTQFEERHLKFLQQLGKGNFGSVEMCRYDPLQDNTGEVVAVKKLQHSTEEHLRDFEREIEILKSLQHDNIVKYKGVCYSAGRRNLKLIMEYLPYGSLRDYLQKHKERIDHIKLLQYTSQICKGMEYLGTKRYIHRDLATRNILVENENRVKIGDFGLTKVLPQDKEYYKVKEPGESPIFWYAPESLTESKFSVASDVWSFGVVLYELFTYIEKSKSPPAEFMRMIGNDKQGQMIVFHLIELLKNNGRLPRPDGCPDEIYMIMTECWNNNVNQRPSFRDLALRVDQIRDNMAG
Fyn, sequence (P06241 whole entry, looked up): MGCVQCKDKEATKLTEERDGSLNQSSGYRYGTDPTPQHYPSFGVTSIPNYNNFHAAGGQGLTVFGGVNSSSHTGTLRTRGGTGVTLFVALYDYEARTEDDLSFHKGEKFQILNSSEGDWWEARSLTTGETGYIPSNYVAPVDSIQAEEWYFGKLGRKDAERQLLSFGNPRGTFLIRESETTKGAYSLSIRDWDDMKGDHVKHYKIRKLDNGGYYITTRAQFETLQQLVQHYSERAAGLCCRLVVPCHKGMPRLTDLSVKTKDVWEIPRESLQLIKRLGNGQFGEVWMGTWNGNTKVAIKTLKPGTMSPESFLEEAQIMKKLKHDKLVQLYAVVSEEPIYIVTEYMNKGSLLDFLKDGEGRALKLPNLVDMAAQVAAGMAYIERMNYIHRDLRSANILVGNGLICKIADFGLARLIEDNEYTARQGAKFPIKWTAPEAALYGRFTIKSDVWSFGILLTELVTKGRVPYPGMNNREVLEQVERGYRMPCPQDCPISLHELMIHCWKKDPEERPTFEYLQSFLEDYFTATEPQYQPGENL
Hck, sequence (P08631 whole entry, looked up): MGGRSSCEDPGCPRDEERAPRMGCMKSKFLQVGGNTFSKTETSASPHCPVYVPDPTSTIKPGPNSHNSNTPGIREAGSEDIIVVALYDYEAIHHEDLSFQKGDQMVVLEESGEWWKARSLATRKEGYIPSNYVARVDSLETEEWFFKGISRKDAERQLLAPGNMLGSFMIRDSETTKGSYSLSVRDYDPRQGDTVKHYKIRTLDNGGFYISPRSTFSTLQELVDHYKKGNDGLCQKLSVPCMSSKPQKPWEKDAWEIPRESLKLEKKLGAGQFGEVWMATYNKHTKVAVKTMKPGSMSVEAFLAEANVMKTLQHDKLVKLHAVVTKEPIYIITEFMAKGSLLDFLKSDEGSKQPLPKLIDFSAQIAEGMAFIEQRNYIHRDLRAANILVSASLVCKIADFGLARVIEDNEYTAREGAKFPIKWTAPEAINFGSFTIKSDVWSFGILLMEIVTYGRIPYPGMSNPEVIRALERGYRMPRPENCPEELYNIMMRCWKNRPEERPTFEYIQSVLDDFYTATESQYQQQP
Grb2 SH2, sequence (P62993 whole entry, looked up): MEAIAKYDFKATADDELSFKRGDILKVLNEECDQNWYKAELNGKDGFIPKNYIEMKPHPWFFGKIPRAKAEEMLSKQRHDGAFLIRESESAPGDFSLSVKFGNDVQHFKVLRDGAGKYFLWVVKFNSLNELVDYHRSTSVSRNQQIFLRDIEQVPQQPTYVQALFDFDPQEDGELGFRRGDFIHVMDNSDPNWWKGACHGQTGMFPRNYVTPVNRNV
FGFR1, sequence (P11362 whole entry, looked up): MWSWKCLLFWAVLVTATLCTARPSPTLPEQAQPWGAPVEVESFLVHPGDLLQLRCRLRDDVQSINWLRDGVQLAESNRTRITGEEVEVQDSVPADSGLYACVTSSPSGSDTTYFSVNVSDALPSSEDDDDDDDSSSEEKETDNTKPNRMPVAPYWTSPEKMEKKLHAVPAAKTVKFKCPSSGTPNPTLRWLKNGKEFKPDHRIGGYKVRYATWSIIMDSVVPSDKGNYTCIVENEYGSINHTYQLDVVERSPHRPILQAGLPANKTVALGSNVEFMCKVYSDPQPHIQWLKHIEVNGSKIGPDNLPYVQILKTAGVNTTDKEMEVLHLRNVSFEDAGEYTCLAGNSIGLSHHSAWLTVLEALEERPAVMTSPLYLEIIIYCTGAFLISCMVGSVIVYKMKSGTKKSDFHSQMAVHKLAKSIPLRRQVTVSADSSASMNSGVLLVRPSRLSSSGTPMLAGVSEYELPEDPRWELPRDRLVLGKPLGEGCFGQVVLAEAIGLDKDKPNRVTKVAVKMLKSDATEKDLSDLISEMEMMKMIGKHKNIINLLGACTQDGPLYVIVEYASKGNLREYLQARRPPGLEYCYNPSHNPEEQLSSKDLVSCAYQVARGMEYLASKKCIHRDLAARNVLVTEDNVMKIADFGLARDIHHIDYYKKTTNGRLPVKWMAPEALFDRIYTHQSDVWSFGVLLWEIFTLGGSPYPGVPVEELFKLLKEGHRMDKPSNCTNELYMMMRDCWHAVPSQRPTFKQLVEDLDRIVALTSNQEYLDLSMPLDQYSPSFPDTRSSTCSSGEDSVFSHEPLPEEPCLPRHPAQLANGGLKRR
EPHB1, sequence (P54762 whole entry, looked up): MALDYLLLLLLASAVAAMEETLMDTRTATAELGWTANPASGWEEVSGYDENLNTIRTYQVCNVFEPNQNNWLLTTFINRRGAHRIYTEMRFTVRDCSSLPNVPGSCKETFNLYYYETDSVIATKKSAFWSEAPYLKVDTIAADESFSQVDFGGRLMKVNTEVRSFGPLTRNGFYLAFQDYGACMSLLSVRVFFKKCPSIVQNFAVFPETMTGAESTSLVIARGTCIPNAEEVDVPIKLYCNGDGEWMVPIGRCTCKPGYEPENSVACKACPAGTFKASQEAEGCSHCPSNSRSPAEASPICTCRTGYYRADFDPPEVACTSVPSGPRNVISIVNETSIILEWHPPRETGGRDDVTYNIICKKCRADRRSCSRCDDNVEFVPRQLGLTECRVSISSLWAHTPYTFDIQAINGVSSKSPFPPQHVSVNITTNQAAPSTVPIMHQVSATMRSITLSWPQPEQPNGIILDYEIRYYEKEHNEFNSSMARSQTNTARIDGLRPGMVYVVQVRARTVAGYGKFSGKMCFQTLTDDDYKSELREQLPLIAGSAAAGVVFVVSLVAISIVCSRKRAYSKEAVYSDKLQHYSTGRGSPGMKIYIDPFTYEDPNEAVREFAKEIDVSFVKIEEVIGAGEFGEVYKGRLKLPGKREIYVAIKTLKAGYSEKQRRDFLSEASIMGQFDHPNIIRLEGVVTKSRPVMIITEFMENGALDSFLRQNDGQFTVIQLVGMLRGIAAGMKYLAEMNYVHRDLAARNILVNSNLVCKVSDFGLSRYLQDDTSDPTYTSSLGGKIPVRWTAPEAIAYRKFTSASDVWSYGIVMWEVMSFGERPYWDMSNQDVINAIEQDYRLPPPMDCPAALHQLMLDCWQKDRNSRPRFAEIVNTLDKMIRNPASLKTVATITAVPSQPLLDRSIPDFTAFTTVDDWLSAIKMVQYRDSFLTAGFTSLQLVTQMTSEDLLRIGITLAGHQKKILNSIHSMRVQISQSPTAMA
FGFR3, sequence (P22607 whole entry, looked up): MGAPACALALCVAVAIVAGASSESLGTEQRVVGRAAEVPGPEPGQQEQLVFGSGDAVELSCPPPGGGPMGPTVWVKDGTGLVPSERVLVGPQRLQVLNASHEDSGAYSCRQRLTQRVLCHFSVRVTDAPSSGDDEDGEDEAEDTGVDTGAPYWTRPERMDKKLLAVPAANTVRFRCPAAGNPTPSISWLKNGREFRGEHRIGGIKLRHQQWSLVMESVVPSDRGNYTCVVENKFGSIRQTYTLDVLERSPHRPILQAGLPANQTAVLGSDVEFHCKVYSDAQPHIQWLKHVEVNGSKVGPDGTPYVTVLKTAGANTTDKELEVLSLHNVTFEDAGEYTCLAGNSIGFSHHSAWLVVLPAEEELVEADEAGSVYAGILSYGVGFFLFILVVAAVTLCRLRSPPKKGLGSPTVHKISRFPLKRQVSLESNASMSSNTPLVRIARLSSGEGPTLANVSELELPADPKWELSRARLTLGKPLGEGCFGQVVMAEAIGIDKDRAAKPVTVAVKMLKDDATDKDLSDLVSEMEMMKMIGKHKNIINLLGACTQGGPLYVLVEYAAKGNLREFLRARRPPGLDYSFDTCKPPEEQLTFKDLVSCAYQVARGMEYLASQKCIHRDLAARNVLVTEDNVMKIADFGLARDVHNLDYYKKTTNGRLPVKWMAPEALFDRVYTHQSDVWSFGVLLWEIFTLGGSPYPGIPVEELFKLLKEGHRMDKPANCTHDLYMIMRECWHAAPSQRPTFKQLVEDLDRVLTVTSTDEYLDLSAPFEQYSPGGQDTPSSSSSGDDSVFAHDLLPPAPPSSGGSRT

| Sequence | SH2 binding enrichment (c-Src SH2) | SH2 binding enrichment (SHP2-C SH2) | SH2 binding enrichment (Grb2 SH2) | phosphorylation enrichment (Jak2) | phosphorylation enrichment (Fes) | phosphorylation enrichment (EPHB2) | phosphorylation enrichment (FGFR1) | phosphorylation enrichment (AncSZ) | phosphorylation enrichment (MERTK) | phosphorylation enrichment (Hck) | phosphorylation enrichment (EPHB1) | phosphorylation enrichment (FGFR3) | phosphorylation enrichment (c-Abl (mouse)) | phosphorylation enrichment (Fyn) | phosphorylation enrichment (c-Src) | phosphorylation enrichment (Fer (mouse)) |
| --- | --- | --- | --- | --- | --- | --- | --- | --- | --- | --- | --- | --- | --- | --- | --- | --- |
| VKGGAYNPVTV [MCCC2_Y145_Y146N] | 0.466 | 0.558 | 0.814 | 0.781 | 0.644 | 0.372 | 0.447 | 0.552 | 0.471 | 0.434 | 0.471 | 0.469 | 0.609 | 0.456 | 0.511 | 0.526 |
| KYACSYTPVKA [FLNB_Y708_T703K] | 1.28 | 2.91 | 1.05 | 0.598 | 0.758 | 0.417 | 0.576 | 0.689 | 0.414 | 0.483 | 0.473 | 0.697 | 0.557 | 0.387 | 0.432 | 0.438 |
| GLDSSYLLRDS [SH2D1A_Y29_G27S] | 0.476 | 0.64 | 0.908 | 0.464 | 0.612 | 0.36 | 0.613 | 0.477 | 0.422 | 0.323 | 0.343 | 0.426 | 0.434 | 0.386 | 0.386 | 0.305 |
| ETEMLYGSAPR [PRC1_Y464] | 0.437 | 0.686 | 0.784 | 0.556 | 0.805 | 0.513 | 0.474 | 0.889 | 0.414 | 6.51 | 0.433 | 0.557 | 0.716 | 6.44 | 5.25 | 6.32 |
| LRRREYQRQDF [PRKRIP1_Y90_YF] | 0.397 | 0.55 | 0.671 | 0.836 | 0.679 | 0.559 | 0.699 | 0.603 | 0.7 | 0.572 | 0.549 | 0.561 | 0.777 | 0.539 | 0.977 | 0.563 |
| DKTGEYPVPLI [ACADM_Y73] | 0.399 | 0.697 | 0.666 | 0.856 | 0.957 | 0.575 | 0.468 | 0.809 | 0.392 | 0.49 | 0.528 | 0.687 | 0.55 | 0.407 | 0.436 | 0.442 |
| HQIQSYTCEID [DES_Y331] | 0.774 | 0.786 | 0.951 | 1.44 | 1.27 | 0.802 | 0.822 | 0.927 | 0.595 | 0.675 | 0.7 | 0.882 | 0.767 | 0.628 | 0.502 | 0.349 |
| SHSMKYFDTAV [HLA-C_Y31_R30K] | 0.417 | 0.71 | 1.01 | 0.785 | 0.572 | 0.389 | 0.396 | 0.579 | 0.436 | 0.392 | 0.36 | 0.432 | 0.469 | 0.356 | 0.395 | 0.357 |
| FKRAVYCIIGR [NUP93_Y391_YF] | 1.06 | 0.686 | 1.01 | 0.772 | 0.9 | 0.617 | 0.511 | 0.952 | 1.13 | 0.938 | 0.576 | 0.536 | 0.776 | 0.682 | 0.809 | 0.529 |
| HFVDEYDPTME [KRAS_Y32_I36M] | 0.717 | 0.448 | 0.802 | 1.33 | 1.49 | 0.437 | 0.424 | 1.5 | 0.66 | 0.702 | 0.727 | 0.633 | 1.31 | 0.614 | 0.634 | 1.11 |
| GRIHSYRGHLW [VHL_Y112_R107G] | 1.61 | 1.99 | 1.85 | 0.535 | 0.712 | 0.392 | 0.363 | 0.585 | 0.357 | 0.359 | 0.387 | 0.438 | 0.51 | 0.38 | 0.347 | 0.373 |
| HLDRSYSYSYS [PEAR1_Y890_R885H] | 1.53 | 1.2 | 0.889 | 1.02 | 0.583 | 0.477 | 0.558 | 0.718 | 0.583 | 0.424 | 0.603 | 0.66 | 0.49 | 0.424 | 0.474 | 0.401 |
| SAGSSYSISVI [PAX5_Y179_G183V] | 0.62 | 0.686 | 0.856 | 0.835 | 0.975 | 0.712 | 0.485 | 0.986 | 0.472 | 0.539 | 0.553 | 0.752 | 0.807 | 0.688 | 0.48 | 0.572 |
| FSLPAFMDRRD [COX4I1_Y38_Y38F] | 0.639 | 1.03 | 1.02 | 0.807 | 0.81 | 0.456 | 0.473 | 0.947 | 0.4 | 0.41 | 0.396 | 0.537 | 0.497 | 0.458 | 0.459 | 0.455 |
| KGEDFYCVTFH [FHL1_Y149_C153Y_YF] | 0.515 | 0.799 | 1.03 | 1.21 | 1.48 | 0.891 | 0.952 | 1.48 | 2.82 | 1.19 | 0.825 | 1.12 | 0.895 | 1.78 | 1.47 | 1.54 |
| KALKQYRAGPS [DDX27_Y763] | 0.438 | 0.804 | 1.04 | 0.545 | 0.553 | 0.312 | 0.355 | 0.473 | 0.391 | 0.454 | 0.34 | 0.368 | 0.531 | 0.43 | 0.407 | 0.389 |

Source: the supplement of paper PMC10065799, “High-throughput profiling of sequence recognition by tyrosine kinases and SH2 domains using bacterial peptide display” (eLife, 2023)
